Numbering of substitutions follows the chain as printed.

Series [1] deals with T1, eIF4E (untagged, co-expressed with p20);His6x-p20 6x mutant R55L;R56L;R57L;H60L;H61L;H62L (Saccharomyces cerevisiae;Saccharomyces cerevisiae) (UniProt P07260+P12962).
T1 sequence 1: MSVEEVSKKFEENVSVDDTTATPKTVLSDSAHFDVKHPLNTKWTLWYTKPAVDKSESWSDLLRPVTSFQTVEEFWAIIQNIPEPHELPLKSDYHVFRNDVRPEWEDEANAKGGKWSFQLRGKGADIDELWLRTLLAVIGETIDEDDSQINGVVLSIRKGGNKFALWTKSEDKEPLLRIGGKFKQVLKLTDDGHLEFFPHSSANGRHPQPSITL
T1 sequence 2: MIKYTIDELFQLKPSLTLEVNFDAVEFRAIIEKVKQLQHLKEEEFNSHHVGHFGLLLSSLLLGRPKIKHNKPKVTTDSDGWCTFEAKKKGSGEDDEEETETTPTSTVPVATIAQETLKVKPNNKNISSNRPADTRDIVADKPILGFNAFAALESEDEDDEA
In words: MST. To be noted: 5' m7GpppG cap (Vaccinia Capping System); Buffer A: 10 mM sodium phosphate pH 7.5, 100 mM NaCl, 2.5 mM MgCl2, 1 mM DTT, 0.05% NP40; MST at 25 C (proteins for capped RNA MST RED-tris-NTA labeled in …).

Series [2] has as its target T2, eIF4E (untagged, co-expressed with p20);His6x-p20 WT (Saccharomyces cerevisiae;Saccharomyces cerevisiae) (UniProt P07260+P12962).
T2 sequence 1: T1 sequence 1
T2 sequence 2: T1 sequence 2 with L55R, L56R, L57R, L60H, L61H, L62H
As to the kind of experiment: MST. As to conditions: 5' m7GpppG cap (Vaccinia Capping System), Buffer A: 10 mM sodium phosphate pH 7.5, 100 mM NaCl, 2.5 mM MgCl2, 1 mM DTT, 0.05% NP40, MST at 25 C (proteins for capped RNA MST RED-tris-NTA labeled in …).

Series [3] addresses T3, His6x-eIF4E;p20 N-terminal 18aa peptide (Saccharomyces cerevisiae;Saccharomyces cerevisiae) (UniProt P07260+P12962).
T3 sequence 1: T1 sequence 1
T3 sequence 2: MIKYTIDELFQLKPSLTL
As to the kind of experiment: MST. To be noted: equimolar 18aa p20 peptide; 5' m7GpppG cap (Vaccinia Capping System); Buffer A: 10 mM sodium phosphate pH 7.5, 100 mM NaCl, 2.5 mM MgCl2, 1 mM DTT, 0.05% NP40; MST at 25 C (proteins for capped RNA MST RED-tris-NTA labeled in …).

Series [4] has as its target T1, eIF4E (untagged, co-expressed with p20);His6x-p20 6x mutant R55L;R56L;R57L;H60L;H61L;H62L (Saccharomyces cerevisiae;Saccharomyces cerevisiae). In words: EMSA. To be noted: 5' m7GpppG cap (Vaccinia Capping System); Buffer A: 10 mM sodium phosphate pH 7.5, 100 mM NaCl, 2.5 mM MgCl2, 1 mM DTT, 0.05% NP40; MST at 25 C (proteins for capped RNA MST RED-tris-NTA labeled in …). On the technique in general: Mobility shift assays separate free from complexed probe on a gel.

Series [5] concerns the target T2, eIF4E (untagged, co-expressed with p20);His6x-p20 WT (Saccharomyces cerevisiae;Saccharomyces cerevisiae). As to the kind of experiment: EMSA. To be noted: 5' m7GpppG cap (Vaccinia Capping System); Buffer A: 10 mM sodium phosphate pH 7.5, 100 mM NaCl, 2.5 mM MgCl2, 1 mM DTT, 0.05% NP40; MST at 25 C (proteins for capped RNA MST RED-tris-NTA labeled in …).
Series [6] concerns the target T4, eIF4E (untagged, co-expressed with p20);His6x-p20 WT (Saccharomyces cerevisiae;Saccharomyces …, UniProt P07260;P12962 1-213;1-161, |).
T4 sequence 1: T1 sequence 1
T4 sequence 2: T1 sequence 2 with L55R, L56R, L57R, L60H, L61H, L62H
As to the kind of experiment: MST; Buffer A: 10 mM sodium phosphate pH 7.5, 100 mM NaCl, 2.5 mM MgCl2, 1 mM DTT, 0.05% NP40; MST at 25 C (proteins for capped RNA MST RED-tris-NTA labeled in buffer B: 20 mM HEPES-KOH pH 7.5, 50 mM NaCl, 1 mM DTT); EMSA 1.5% agarose, 1x TBE, temperature not stated. As to conditions: protein: recombinant;recombinant; tags: ;N-terminal His6x; copies: 1;1; label: 3' FAM.

Series [7] concerns the target T5, eIF4E (untagged, co-expressed with p20);His6x-p20 6x mutant (Saccharomyces cerevisiae;Saccharomyces …, UniProt P07260;P12962 1-213;1-161, |R55L;R56L;R57L;H60L;H61L;H62L).
T5 sequence 1: T1 sequence 1
T5 sequence 2: T1 sequence 2
The description is as above. As to conditions: protein: recombinant;recombinant; tags: ;N-terminal His6x; copies: 1;1; label: 3' FAM.

Series [8] deals with T4, eIF4E (untagged, co-expressed with …). As to the kind of experiment: EMSA; Buffer A: 10 mM sodium phosphate pH 7.5, 100 mM NaCl, 2.5 mM MgCl2, 1 mM DTT, 0.05% NP40; MST at 25 C (proteins for capped RNA MST RED-tris-NTA labeled in buffer B: 20 mM HEPES-KOH pH 7.5, 50 mM NaCl, 1 mM DTT); EMSA 1.5% agarose, 1x TBE, temperature not stated. To be noted: protein: recombinant;recombinant; tags: ;N-terminal His6x; copies: 1;1; label: 3' FAM.

One may read the Kd as the equilibrium constant for the complex coming apart. As to “GGGAACAAAAGCUGGUAAUCAAGAAUUACAAGAAACAAAAAUUCAAGUAAAUAACAGAUAAUAC [capped SSA1 5'UTR RNA, 64 nt]”, the Kd in series [1] came out at 424 nM; in series [2], 44.9 nM; in series [2] (control of the 6x mutant experiment), 46.9 nM; in series [3] it was 211 nM; in series [4] it was 285 nM; in series [5] it was 64.9 nM.

Consider GUAUUACAAGAAACAAAAAUUCAAGUAAAUAACAGAUAAU (ssRNA) [uncapped SSA1 5'UTR RNA, 40 nt], for which the Kd in series [6] was determined as 6240 nM; in series [7] it was 35500 nM; in series [8] it was 8800 nM.

Values taken from publication PMC5928113, “Properties of the ternary complex formed by yeast eIF4E, p20 and mRNA” (Scientific Reports, 2018).
